Experimental findings from patent US20190033295A1 (published 2019) are described below.

The assay has as its target HSP70 protein (UniProt P0DMV8 1-641). Description: SPR.

A word on the Kd: it is the concentration at which binding is half-saturated. Low values mean a tighter complex, high ones a looser complex.

Chain of HSP70 protein (P0DMV8 whole entry): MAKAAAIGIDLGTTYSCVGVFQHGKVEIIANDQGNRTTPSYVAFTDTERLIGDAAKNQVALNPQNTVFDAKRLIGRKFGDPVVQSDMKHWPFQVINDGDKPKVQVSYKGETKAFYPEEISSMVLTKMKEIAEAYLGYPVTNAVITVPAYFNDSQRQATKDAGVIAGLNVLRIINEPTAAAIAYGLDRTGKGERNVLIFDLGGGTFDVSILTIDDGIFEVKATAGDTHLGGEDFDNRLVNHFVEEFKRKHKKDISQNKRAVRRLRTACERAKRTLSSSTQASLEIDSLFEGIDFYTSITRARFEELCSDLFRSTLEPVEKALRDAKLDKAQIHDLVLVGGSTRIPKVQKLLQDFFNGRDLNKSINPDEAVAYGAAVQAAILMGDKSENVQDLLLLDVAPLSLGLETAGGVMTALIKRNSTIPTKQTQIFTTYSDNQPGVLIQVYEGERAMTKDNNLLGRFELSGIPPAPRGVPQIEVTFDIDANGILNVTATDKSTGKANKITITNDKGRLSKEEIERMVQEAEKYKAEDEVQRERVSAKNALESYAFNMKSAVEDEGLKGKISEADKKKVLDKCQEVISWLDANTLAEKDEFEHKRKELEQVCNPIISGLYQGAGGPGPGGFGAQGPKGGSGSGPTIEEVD

B1: AIMP2-DX2 protein (other)
chain: MPMYQVKPYHGGGAPLRVELPTCMYRLPNVHGRSYGPAPGAGHVQDYGALKDIVINANPASPPLSLLVLHRLLCEHFRVLSTVHTHSSVKSVPENLLKCFGEQNKKQPRQDYQLGFTLIWKNVPKTQMKFSIQTMCPIEGEGNIARFLFSLFGQKHNAVNATLIDSWVDIAIFQLKEGSSKEKAAVFRSMNSALGKSPWLAGNELTVADVVLWSVLQQIGGCSVTVPANVQRWMRSCENLAPFNTALKLLK
The molecule B1 showed a Kd of 0.479 nM.
